Assay results published in patent US20220220215A1 (CRESCENDO BIOLOGICS, published 2022).
Values belong to the binder of their own block, whether it stands above or below them.

Tests used:
[1] = biological target: T1, human PD-1 expressed on CHO cells (human, UniProt Q15116 21-288); assay: FMAT/Mirrorball on CHO huPD1 cells
T1 construct: also called CHO huPD1; CHO human PD1 cells
Protocol: (§1) Binding of His-tagged molecules to CHO human CD137, CHO parent and CHO human PD1 cells was assessed using Fluorescence Microvolume Assay Technology (FMAT). All reagents were prepared in FMAT assay buffer (pH 7.4) containing PBS, 0.1% Bovine Serum Albumin, 0.05% Sodium Azide. […] Fluorescence emission was then measured on the TTP Mirrorball plate reader in the FL2 (502 nm-537 nm) and FL5 (677-800 nm) channels following excitation at 488 nm and 640 nm. Data was gated on FL5 perimeter and peak intensity and the FL2 median mean fluorescence intensity of the gated data used for determination of VH binding. Monovalent CD137 specific Humabody® VH, and trispecific molecules with a CD137 binding arm bound to CHO CD137 expressing cells. Trispecific Humabody® VH, with a PD1 binding arm bound to PD1 expressing cells.

[2] = biological target: T2, human CD137 expressed on CHO cells (human, UniProt Q07011 18-255); assay: FMAT/Mirrorball on CHO huCD137 cells
T2 construct: also called CHO huCD137; CHO human CD137 cells
Protocol: as §1

[3] = biological target: human CD137 expressed on cells (Jurkat human CD137 NF-kB luciferase reporter cells; human CD8+ T cells) (human, UniProt Q07011 24-255); assay: cell-based or functional assay
[4] = biological target: T3, biotinylated human CD137-His (human, UniProt Q07011 24-186, biotinylated); assay: SPR, Biacore 8K, multi-cycle kinetics; biotinylated antigen captured on streptavidin chip; 1:1 model
T3 construct: not shown: His tag
Protocol: (§2) Multi cycle kinetics assays were then used to evaluate the kinetics and affinity of the interaction. Experiments were performed at […] in HBS-EP+ assay buffer with a flow rate of 30 μl/minute. A streptavidin chip (Streptavidin (SA), Series S, GE Healthcare BR100531) was used to capture the biotinylated human CD137 or human PD-1 reaching a maximum of 75RU or 200RU respectively. A second flow cell without any captured antigen was used as the reference cell. […] The binding kinetics were followed by flowing these over the chip surface. The contact time for the binding steps was 360 or 180 seconds and the dissociation step was 3600 or 1200 seconds for human CD137 and PD1 respectively. After each run, the sensors were regenerated with glycine pH 1.5 to remove the captured Humabody® VH. The data was fitted to a 1:1 binding model after reference subtraction using the Biacore Evaluation software. Example kinetic and binding affinity data obtained is shown Table 19.

[5] = biological target: T4, biotinylated human PD-1-His tagged protein (human, UniProt Q15116 25-170, biotinylated); assay: as above
T4 construct: not shown: His tag
Protocol: as §2

B5: TPP-985: CD137D -6GS-HSA2-2-6GS-PDA2-His (bispecific antibody)
chain: EVQLVESGGGVVQPGGSLRLSCAASGFTFSNYGMHWVRQAPGKGLEWVAVISNDGNTKTYADSVKGRFTISRDNSKNTLYLQMNSLRAEDTAVYYCAQDETTTVTASYYFDYWGQGTLVTVSSGGGGSGGGGSGGGGSGGGGSGGGGSGGGGSEVQLVESGGGLVKPGGSLRLSCAASGFTFSNYNMNWVRQAPGKGLEWVSSISSAGTHIYYADSVKGRFTISRDNAKNSLYLQMNSLRAEDTAVYYCARDPHSTGWYKDFDYWGQGTLVTVSSGGGGSGGGGSGGGGSGGGGSGGGGSGGGGSEVQLVESGGGVVRPGGSLRLSCAASGFTFDDYAMSWVRQAPGKGLEWVSGITWNAGSTGYADSVKGRFTISRDNAKNSLYLQMNSLRAEDTALYYCVRDKYSYAWSYDDFDIWGQGTMVTVSSAAAHHHHHH
notes: Single-chain VH fusion (CD137 VH, HSA VH, PD-1 VH), His tag
- EC50 [1]: 0.541 nM
- EC50 [2]: 0.382 nM

B6: TPP-969: PDA-6GS-HSA2-6GS-172E1-13-His (bispecific antibody)
chain: EVQLVESGGGLVQPGRSLRLSCAASGFTFDDYALHWVRQAPGKDLEWVSGISWNGGSYGYADSVKGRFTISRDNAKNSLYLQMNSLRAEDTALYYCVREKGPGLTGSTADYYGLDAWGQGTMVTVSSGGGGSGGGGSGGGGSGGGGSGGGGSGGGGSEVQLVESGGGLVKPGGSLRLSCAASGFTFSNYNMNWVRQAPGKGLEWVSSISSAGTHIYYADSVKGRFTISRDNAKNSLYLQMNSLRAEDTAVYYCARDPHSTGWYKDFDYWGQGTLVTVSSGGGGSGGGGSGGGGSGGGGSGGGGSGGGGSEVQLVESGGGVVQPGGSLRLSCAASGFTFSNYGMHWVRQAPGKGLEWVAVISNDGNTKTYADSVKGRFTISRDNSKNTLYLQMNSLRAEDTAVYYCAQDETTTVTASYYFDYWGQGTLVTVSSAAAHHHHHH
- Jurkat-CD137/CHO-PD-1 Reporter Assay EC50 [3]: 11.1 nM
- Kd [4]: 20.9 nM
- koff [4]: 0.00255 s⁻¹
- kon [4]: 122000 M⁻¹ s⁻¹
- Kd [5]: 13.4 nM
- koff [5]: 0.000915 s⁻¹
- kon [5]: 68500 M⁻¹ s⁻¹

B7: TPP-973: CD137A-6GS-PDA2-6GS-HSA2-His (bispecific antibody)
chain: EVQLVESGGGLVQPGGSLRLSCAASGFTLSNYWMNWVRQAPGKGLEWVANINQDGSERYYVDSVKGRFTISRDNAKNSLYLQMNSLRAEDTAVYYCARGGEGYGVDHYGLDVSGQGTTVTVSSGGGGSGGGGSGGGGSGGGGSGGGGSGGGGSEVQLVESGGGVVRPGGSLRLSCAASGFTFDDYAMSWVRQAPGKGLEWVSGITWNAGSTGYADSVKGRFTISRDNAKNSLYLQMNSLRAEDTALYYCVRDKYSYAWSYDDFDIWGQGTMVTVSSGGGGSGGGGSGGGGSGGGGSGGGGSGGGGSEVQLVESGGGLVKPGGSLRLSCAASGFTFSNYNMNWVRQAPGKGLEWVSSISSAGTHIYYADSVKGRFTISRDNAKNSLYLQMNSLRAEDTAVYYCARDPHSTGWYKDFDYWGQGTLVTVSSAAAHHHHHH
- Jurkat-CD137/CHO-PD-1 Reporter Assay EC50 [3]: 0.254 nM
- Kd [4]: 0.108 nM
- koff [4]: 2.57e-05 s⁻¹
- kon [4]: 237000 M⁻¹ s⁻¹
- Kd [5]: 71.6 nM
- koff [5]: 0.014 s⁻¹
- kon [5]: 195000 M⁻¹ s⁻¹

B8: TPP-972: CD137A-6GS-PDA-6GS-HSA2-His (bispecific antibody)
chain: EVQLVESGGGLVQPGGSLRLSCAASGFTLSNYWMNWVRQAPGKGLEWVANINQDGSERYYVDSVKGRFTISRDNAKNSLYLQMNSLRAEDTAVYYCARGGEGYGVDHYGLDVSGQGTTVTVSSGGGGSGGGGSGGGGSGGGGSGGGGSGGGGSEVQLVESGGGLVQPGRSLRLSCAASGFTFDDYALHWVRQAPGKDLEWVSGISWNGGSYGYADSVKGRFTISRDNAKNSLYLQMNSLRAEDTALYYCVREKGPGLTGSTADYYGLDAWGQGTMVTVSSGGGGSGGGGSGGGGSGGGGSGGGGSGGGGSEVQLVESGGGLVKPGGSLRLSCAASGFTFSNYNMNWVRQAPGKGLEWVSSISSAGTHIYYADSVKGRFTISRDNAKNSLYLQMNSLRAEDTAVYYCARDPHSTGWYKDFDYWGQGTLVTVSSAAAHHHHHH
- Jurkat-CD137/CHO-PD-1 Reporter Assay EC50 [3]: 0.321 nM
- Kd [4]: 0.01 nM
- koff [4]: 1.55e-05 s⁻¹
- kon [4]: 1.54e+06 M⁻¹ s⁻¹
- Kd [5]: 11.8 nM
- koff [5]: 0.000761 s⁻¹
- kon [5]: 64300 M⁻¹ s⁻¹

Second part, the binder after the results:

- EC50 [1]: 0.626 nM
- EC50 [2]: 0.145 nM
B1: TPP-1023: CD137A -6GS-HSA3-6GS-PDA-His (bispecific antibody)
chain: EVQLVESGGGLVQPGGSLRLSCAASGFTLSNYWMNWVRQAPGKGLEWVANINQDGSERYYVDSVKGRFTISRDNAKNSLYLQMNSLRAEDTAVYYCARGGEGYGVDHYGLDVSGQGTTVTVSSGGGGSGGGGSGGGGSGGGGSGGGGSGGGGSEVQLLESGGGLVKPGGSLRLSCAASGFTVSSYTMNWVRQAPGKGLEWVSSISSSGRYIYYADSVKGRFTISRDNAKNSLYLQMNSLRAEDTAVYYCARDPRMVGNPHEFDIWGQGTMVTVSSGGGGSGGGGSGGGGSGGGGSGGGGSGGGGSEVQLVESGGGLVQPGRSLRLSCAASGFTFDDYALHWVRQAPGKDLEWVSGISWNGGSYGYADSVKGRFTISRDNAKNSLYLQMNSLRAEDTALYYCVREKGPGLTGSTADYYGLDAWGQGTMVTVSSAAAHHHHHH
notes: as for B5

- Jurkat-CD137/CHO-PD-1 Reporter Assay EC50 [3]: 0.312 nM
- Kd [4]: 0.0281 nM
- koff [4]: 1.9e-05 s⁻¹
- kon [4]: 674000 M⁻¹ s⁻¹
- Kd [5]: 5.83 nM
- koff [5]: 0.00235 s⁻¹
- kon [5]: 403000 M⁻¹ s⁻¹
B2: TPP-1028: CD137A-6GS-HSA3-6GS-PD138G7(G109D)-His (bispecific antibody)
chain: EVQLVESGGGLVQPGGSLRLSCAASGFTLSNYWMNWVRQAPGKGLEWVANINQDGSERYYVDSVKGRFTISRDNAKNSLYLQMNSLRAEDTAVYYCARGGEGYGVDHYGLDVSGQGTTVTVSSGGGGSGGGGSGGGGSGGGGSGGGGSGGGGSEVQLLESGGGLVKPGGSLRLSCAASGFTVSSYTMNWVRQAPGKGLEWVSSISSSGRYIYYADSVKGRFTISRDNAKNSLYLQMNSLRAEDTAVYYCARDPRMVGNPHEFDIWGQGTMVTVSSGGGGSGGGGSGGGGSGGGGSGGGGSGGGGSEVQLVESGGGVVRPGGSLRLSCAASGFTFDDYAMSWVRQAPGKGLEWVSGITWNGGSTGYADSVKDRFTISRDNAKNSLYLQMNSLRAEDTALYYCVRDKYSYAWSYDDFDIWGQGTMVTVSSAAAHHHHHH

- Jurkat-CD137/CHO-PD-1 Reporter Assay EC50 [3]: 0.238 nM
- Kd [4]: 0.023 nM
- koff [4]: 2.87e-05 s⁻¹
- kon [4]: 1.25e+06 M⁻¹ s⁻¹
- Kd [5]: 5.95 nM
- koff [5]: 0.00246 s⁻¹
- kon [5]: 413000 M⁻¹ s⁻¹
B3: TPP-1027: CD137A-6GS-HSA2-6GS-PD138G7(G109D)-His (bispecific antibody)
chain: EVQLVESGGGLVQPGGSLRLSCAASGFTLSNYWMNWVRQAPGKGLEWVANINQDGSERYYVDSVKGRFTISRDNAKNSLYLQMNSLRAEDTAVYYCARGGEGYGVDHYGLDVSGQGTTVTVSSGGGGSGGGGSGGGGSGGGGSGGGGSGGGGSEVQLVESGGGLVKPGGSLRLSCAASGFTFSNYNMNWVRQAPGKGLEWVSSISSAGTHIYYADSVKGRFTISRDNAKNSLYLQMNSLRAEDTAVYYCARDPHSTGWYKDFDYWGQGTLVTVSSGGGGSGGGGSGGGGSGGGGSGGGGSGGGGSEVQLVESGGGVVRPGGSLRLSCAASGFTFDDYAMSWVRQAPGKGLEWVSGITWNGGSTGYADSVKDRFTISRDNAKNSLYLQMNSLRAEDTALYYCVRDKYSYAWSYDDFDIWGQGTMVTVSSAAAHHHHHH

- Jurkat-CD137/CHO-PD-1 Reporter Assay EC50 [3]: 2.29 nM
- Kd [4]: 21.1 nM
- koff [4]: 0.00366 s⁻¹
- kon [4]: 173000 M⁻¹ s⁻¹
- Kd [5]: 5.5 nM
- koff [5]: 0.00274 s⁻¹
- kon [5]: 498000 M⁻¹ s⁻¹
B4: TPP-1010: PD138G7(G109D)-6GS-HSA2-6GS-CD137D-His (bispecific antibody)
chain: EVQLVESGGGVVRPGGSLRLSCAASGFTFDDYAMSWVRQAPGKGLEWVSGITWNGGSTGYADSVKDRFTISRDNAKNSLYLQMNSLRAEDTALYYCVRDKYSYAWSYDDFDIWGQGTMVTVSSGGGGSGGGGSGGGGSGGGGSGGGGSGGGGSEVQLVESGGGLVKPGGSLRLSCAASGFTFSNYNMNWVRQAPGKGLEWVSSISSAGTHIYYADSVKGRFTISRDNAKNSLYLQMNSLRAEDTAVYYCARDPHSTGWYKDFDYWGQGTLVTVSSGGGGSGGGGSGGGGSGGGGSGGGGSGGGGSEVQLVESGGGVVQPGGSLRLSCAASGFTFSNYGMHWVRQAPGKGLEWVAVISNDGNTKTYADSVKGRFTISRDNSKNTLYLQMNSLRAEDTAVYYCAQDETTTVTASYYFDYWGQGTLVTVSSAAAHHHHHH
